Earlier results as cited in patent publication US11845786B2, “Peptides inhibiting KLK1, KLK4, or KLK4 and KLK8” (Daiichi Sankyo Company, Limited, priority 2017, dated 2023).

T1: KLK13 (Homo sapiens, UniProt Q9UKR3)
T1 sequence (Q9UKR3 17-277): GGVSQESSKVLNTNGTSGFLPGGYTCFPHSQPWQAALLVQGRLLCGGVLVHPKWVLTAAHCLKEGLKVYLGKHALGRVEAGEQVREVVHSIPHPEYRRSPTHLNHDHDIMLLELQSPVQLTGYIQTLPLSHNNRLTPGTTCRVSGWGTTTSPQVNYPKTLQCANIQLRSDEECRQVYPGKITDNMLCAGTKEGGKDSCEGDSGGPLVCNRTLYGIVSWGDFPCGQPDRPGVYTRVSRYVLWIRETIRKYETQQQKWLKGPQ

T2: KLK12 (Homo sapiens, UniProt Q9UKR0)
T2 sequence (Q9UKR0 18-248): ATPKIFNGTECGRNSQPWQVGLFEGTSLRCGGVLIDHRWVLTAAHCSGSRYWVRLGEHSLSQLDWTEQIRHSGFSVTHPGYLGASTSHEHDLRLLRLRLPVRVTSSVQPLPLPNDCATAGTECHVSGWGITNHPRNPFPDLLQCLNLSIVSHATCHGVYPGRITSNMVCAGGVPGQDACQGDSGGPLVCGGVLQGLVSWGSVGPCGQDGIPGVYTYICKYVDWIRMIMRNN

T3: KLK8 (Homo sapiens, UniProt O60259)
T3 sequence (O60259 33-260): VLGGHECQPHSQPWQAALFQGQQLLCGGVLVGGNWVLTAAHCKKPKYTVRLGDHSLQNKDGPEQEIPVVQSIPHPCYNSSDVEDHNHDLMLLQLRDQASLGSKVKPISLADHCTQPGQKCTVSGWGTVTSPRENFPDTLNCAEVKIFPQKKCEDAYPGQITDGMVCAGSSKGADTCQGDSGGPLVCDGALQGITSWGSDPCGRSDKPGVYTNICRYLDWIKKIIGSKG


Key:
KLK13 = biological target: T1, KLK13; details: Non Patent Literature 5
KLK4 = KLK4 (Homo sapiens, UniProt Q9Y5K2); details: Non Patent Literature 5
Sequence of KLK4 (Q9Y5K2 31-254): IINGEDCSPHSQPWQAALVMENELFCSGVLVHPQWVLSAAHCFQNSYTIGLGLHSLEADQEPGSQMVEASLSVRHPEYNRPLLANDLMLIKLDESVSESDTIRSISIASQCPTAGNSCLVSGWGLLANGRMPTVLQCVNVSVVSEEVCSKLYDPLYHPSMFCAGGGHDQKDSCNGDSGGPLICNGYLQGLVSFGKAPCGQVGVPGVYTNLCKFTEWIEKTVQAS

KLK12 = biological target: T2, KLK12; details: Non Patent Literature 5
KLK8 = biological target: T3, KLK8; details: Non Patent Literature 7

Ki (KLK13) | Ki (KLK4) | Ki (KLK12) | KLK8 inhibitory activity (KLK8) | Molecule
1 nM | 27 nM | 1 nM |  | SPINK6: human serine protease of Kazal-type 6, natural KLK4 inhibitor of low specificity (QGGQVDCGEFQDPKVYCTRESNPHCGSDGQTYGNKCAFCKAIVKSGGKISLKHPGKC; UniProt Q6UWN8 24-80, looked up)
 |  |  | very weak | SPINK9: human serine protease of Kazal-type 9, reported to have KLK8 inhibitory activity (protein, UniProt Q5DT21 20-86, looked up) Serine protease inhibitor …: IECAKQTKQMVDCSHYKKLPPGQQRFCHHMYDPICGSDGKTYKNDCFFCSKVKKTDGTLKFVHFGKC
